# Results taken from the nanobody polyreactivity screen of Harvey et al. (2022).
# Experiment: yeast display, Sf9 membrane polyspecificity reagent, FACS + sequencing; frameworks hold sequencing errors
# Outline: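 Polyreactivity labels are assigned by the sorting gate from which each nanobody was recovered. The gates were low and high (top ~1%), set on anti-HA fluorescence for expression and streptavidin fluorescence for reagent binding. Before sorting, galactose-induced (36–48 hours) yeast display cells were stained for 1 hour at 4 °C with 10% biotinylated, detergent-solubilized Sf9 membrane reagent.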
row,Sequence,polyreactivity (PSR sort gate)
1,QVQLVESGGGFVQAGGSLSLSCAASGFTFRRYAMGWYRQAPGKERELVAAITSGGSTNYADSVKGRFTISRDNAKNTVYLQMNSLKPEDTAVYYCNARAGYERYGYWGQGTQVTVSS,high polyreactivity
2,QVQLVESGGGFVQAGGSVRLSCAASGRIFKYAMGWYIPAPGKERELVAAITHKGGSTYADSEKGRFTISRDNAKTTVYIQLNSRKPEDTAVYYCAAYYYYGKGYRRFDYWGQGTQVTVSS,low polyreactivity
3,QVQLVESGGGFVQAGVSLRLSCAASGSIFVVYGMGWYRQAPGKERELVAAISGGITNYADSVKGLFTISRDNAKNTVYLLMNSLKPEDTAVYYCATVDGAYQYTYDYWGQGTQVTVSS,low polyreactivity
4,QVQLVESGGGIDKAGGSLRLSCAPSGGIFIRYAMGWYRQAPGKERELVAGIDSGGGTKYADSVKGRFTISRDNAKNTVYLQMNSLKPEDTAVYYCNGEVSVWPFSYDYWGQGTQVTVSS,low polyreactivity
5,QVQLVESGGGIDQAGGSLRLRCAASGFIFRYYAMGWYRLAPGKESELVAVISASGGSTYYADSVKGRFTISRDNAKKTVYLQMNSRKPEDTAVYYCNTKRYFFHRGDMDYWGQGTQVTVSS,high polyreactivity
6,QVQLVESGGGIDQAGGSLRLSCAASGFIFTNYAMGWYRQAPGKERELVAAITRRGGGTYYADSVKGRFTISRDNAKKTVYVQMNSLKPEDTAVYYCAKYSRLVTANDYDYWGQGTQVTVSS,high polyreactivity
7,QVQLVESGGGIDQAGGSLRLSCAASGNTFYWYAMGWYRQAPGKERDLVAAISRGGRTNYADSVKGRFTISRDNAKNTVYLQMNSLKPEDTAVYFCAKDSNYPQPSKGWYRYDYWGLGTQVTVSS,high polyreactivity
8,QVQLVESGGGIDQAGGSLRLSCAASGRTFTSNAMGWYRQAPGKERELVAVIDRSGTSTYYADSVKGRFTISRDNAKNTVYLQMNSLKPEDTAVYYCAVRVRYSYTSRAKMYYWGQGTQVTVSS,high polyreactivity
9,QVQLVESGGGIVEAGGSLRLSCAASGRIFNQYAMGWYRQAPGKEREFVAAIRWSGGRTYYADSVKGRFTISRDNAKNTVYLQMNRLKPEDTAVYYCAADLYGNNYWDGTTGYDYWGQGTQVTVSS,low polyreactivity
10,QVQLVESGGGIVEAGGSLRLSCAASGSTYYWNAMVWYIQAPGKERELVAAISRDGSTYYADSVNGRFTISRDNAKKTVYLHMNCLKPEVTAVYYCAKACVTNVVVVDSVFAYDYWGQGTIVTVSS,low polyreactivity
11,QVQLVESGGGIVKAGGSLRLSCAPSGSTFDYYTMGWYRQAPGKERELVAAISRSGGSTRYADSVKGRFTISRDNAKNTVDLQMNSLKPEDTAVYYCAAGARQGVYRGGDYWGQGTQVTVSS,low polyreactivity
12,QVQLVESGGGIVQAGCSLRLICAASGRIFYSNYMGWYRQAPGKERELVAAISSSGGSTYYADSLKGRFTISRDNANNTVYLQMNSLKPEDTAVYYCNAVHARYRSQGDYWGQGTQVTVSS,low polyreactivity
13,QVQLVESGGGIVQAGCSLRLSCAASGRTFSWNSMGWYRQAPGKERELVAAITYSGGNTYYADSVKGRFSISRDNAKNTVYLQMNSLKQEDTAVYYCAKFGVTGQGSWSQRMGYWGQGTQVTVSS,high polyreactivity
14,QVQLVESGGGIVQAGGILRLTGAASVITNTSYAMGWYRQAPGKERELVAAISSSGVRTYYADSVKGRFTISRDNAKNTVYLQLNSLKPEDTAVYYCATRRRVLFGYDYWGQGTQVTVSS,high polyreactivity
15,QVQLVESGGGIVQAGGRHRLSCAASGRTFWRNPMGWYSPAPGKERELVASIRITGGSTYYADSVMGRFTISRDNAKTTVYLQMNSLNAEDTAVYYCPASSGIRFVGLSYPIGNYYYWGQGSQVTVSS,high polyreactivity
16,QVQLVESGGGIVQAGGRLRLSCAASGFTCARNVMGWYRQAPGKERELVAAITTSGGSTYYADSVKGRFTISRDNAKNTVSLQMNSLKPEDTAGYYCARRVYGYYIPYNYWGQGTQVTVSS,high polyreactivity
17,QVQLVESGGGIVQAGGRLRLSCDASGSTFSRYTMGWYRQAPGKEREFVAAIRTSGGRTYEDSVKGRFTISRDNAKNTVYVQMNSLKPEDTAVYYCAATRYYGYNTKYEYWGQGTQVTVSS,high polyreactivity
18,QVQLVESGGGIVQAGGSHRLSCAASGSIFVSNAMGWYRQAPGKERELVAAISQSGGSTYYADSVKGRFTISRDTAKNTVYLQMNSLNPEDTAVYYCATPIRSGFRIYDYWGQGTQVTVSS,low polyreactivity
19,QVQLVESGGGIVQAGGSHRLSCAASGYIFKPNHMGWYRQAPGIDRELVAAISKSRGTTYYADSVKGRFTISRDNAKNTVYLQMNGLKPEDTAVYFCGGVRRYHSYPDGGYWGQGSQVTVSS,high polyreactivity
20,QVQLVESGGGIVQAGGSLLLSCAASGSTIIRYVKGWYRQAPGTERELVAGINSSAGSTNYADSVKGRFTISRDNAKNTVYLQMISLKPEDTAVYYCNADLRSEYDYWGQGTQVTVSS,low polyreactivity
21,QVQLVESGGGIVQAGGSLRISCAASGIIFQYYVMGWYRQAPGKESELVAAIEKSGGSTYYADSLKGRFTISRDYAKNTVYLQMNSLNPDDTAVYYCAATSYAHKYYGYFGAIKYEYWGQGTQVTVSS,low polyreactivity

row,Sequence,polyreactivity (PSR sort gate)
1,QVQLVESGGGIVQAGGSLRKSCAASGFTFDENAMGWYRQAPGINYSGASTYYADSVKGRFTISRDNAKNTVYLQMNSLKPEDTAVYYCAAEVVAQMNYWGQGTQVTVSS,low polyreactivity
2,QVQLVESGGGIVQAGGSLRLICAASGSIFDVNALGWYSQAPGKERELVAAITWSGGNTYYADSVKGRFTISRDNAKNNFYLQMYSLKPEDTAVYYCNVYVSAGEEDEYWGQVTQVTVSS,low polyreactivity
3,QVQLVESGGGIVQAGGSLRLICAASGYTFNYYAMGWYRQAPGKEREFVASTYADSVKGRFTISRDNAKNTVYLQMNSLKPEDTAVYYCNARNLGRYLVLSYGYWGQGTQVTVSS,low polyreactivity
4,QVQLVESGGGIVQAGGSLRLICAASVITLVLYAMVWYRQAPGKERELLAAISSSGGSTYYADSVKGRFTISRDNAKNTVYLQMTSLKPEDTAVYYCNVTPDWNARRPFDYWGQGTQVTVSS,high polyreactivity
5,QVQLVESGGGIVQAGGSLRLRCAASGYTFEDNDMGLYRQAPGKERELVAAISVNGGSTYYADSVKGRFTISRDNAKKTVYLQMNSLKPVDTAVFYCNVDTLIGSLYGYDYWGQGTQVTVSS,high polyreactivity
6,QVQLVESGGGIVQAGGSLRLRCAATASIYVHYAMGWYIQAPGKETDLVAAIRWRGGSTNYADSVKGRFTISRDNAKNTVDLQMNSLKQEDTAVSYCNARHPASGDLYRMDYWGPGTQVTVSS,low polyreactivity
7,QVQLVESGGGIVQAGGSLRLSCAASGFIFDVYAMGWYRQAPGKERELVAAISRSGGSTYYADSVKGRFTISRDNAKNTVYLQMNSLKPEDTAVYYCATDLLNNVDYDYWGQGTQVTVSS,low polyreactivity
8,QVQLVESGGGIVQAGGSLRLSCAASGFIFHRNAMGWYRQAPGKERELVASITKRGGNTYYADSVKGRFTISRDTAKNTDFLQMTSLNPEDTGVYYCATQLWGWDWKRDYWGQATQVTVSS,high polyreactivity
9,QVQLVESGGGIVQAGGSLRLSCAASGFIFLPYAMGWYRQAPGKERELVARISRSGASTYYADSVKGRFTISRDNAKNTVYLQMNSLKPEDTAVYYCNAVTSWPRRDFDYWGQGTQVTVSS,high polyreactivity
10,QVQLVESGGGIVQAGGSLRLSCAASGFIFRYYAMGWYRQAPGKERELVAAISWSGGSTYYADSVKGRFTISRDNAKNTVYLQMNSLKPEETAVYYCAAEPTGWVWYAGYGYYWGQGTQVTVSS,high polyreactivity
11,QVQLVESGGGIVQAGGSLRLSCAASGFTFGDYVMGWYRPAPGNERELVAAITTSGTRTSYADSVKGRFTISRDNAKNTVFLQMNSLKPEDTAVYYCAAEHTNYYYFWQAHYYWGPGTQVTVSS,high polyreactivity
12,QVQLVESGGGIVQAGGSLRLSCAASGFTFHTYAMGWYRQAPGKERELVAAISYSGGNTYYADSVKGRFTISRDNAMNTVYLQMNSLKPEDTAVYYCAAQSYYRYYWGQGTQVTVSS,high polyreactivity
13,QVQLVESGGGIVQAGGSLRLSCAASGFTFNRNAMVWYRQAPGKERELVAAISWSGGSTYYADSVKGRFTISRYNAKNTVYLQMNSLKPEDTAVYYCAKGYRRVYGPFYYWGQGTQVTVSS,low polyreactivity
14,QVQLVESGGGIVQAGGSLRLSCAASGFTFRTYTQGWYRQAPGKERELVAAIRSSGGGTYYADSVKGRFTISRDNAKNTVYLQMNSLKPEDTAVYYCIAVRYNSVGYDFWGQGTQVTVSS,high polyreactivity
15,QVQLVESGGGIVQAGGSLRLSCAASGFTFYLYAMGWYRQAPGKERELVAAISRSGGYTYYADSVKGRFSISRDNAQNTVYLQMNSLKPEDTAVYYCNARWRSGPRAYDYWGQGTQVTVSS,high polyreactivity
16,QVQLVESGGGIVQAGGSLRLSCAASGFTYSDYAMGWYRQAPGKERELVAGISSGGSTNYADSVKGRFTISRDNAKYTVYFQMNSLKQVDTAVYYCAAYLYATWSYFFTWLDFWGQGTKVTVSS,high polyreactivity
17,QVQLVESGGGIVQAGGSLRLSCAASGGTFPRYAKGWYRQAPGKEREFVAAISGSGGSTYYADSVKGRFTISRDNAKNTVLLQMNSLKPEDTAVYYCNKVPVYTPSYYWGQGSQVTVSS,low polyreactivity
18,QVQLVESGGGIVQAGGSLRLSCAASGIIFGYYAMGWYRQAPGKEREMVAAINQDGSSTYYADSVKGRFTISRDYAKNTVYLQMNSLKPEDTAVFYCNARGVPRQDARMGYWGQGTQVTVSS,low polyreactivity
19,QVQLVESGGGIVQAGGSLRLSCAASGIIFHFNDMGWYRQAPGKERELVAAITSGGSTNYADSVKGRFTISRDNAKNTVDLQMNSLKPEDTAVYYCAARRGLRLFAYRHGYWGQGTQVTVSS,low polyreactivity
20,QVQLVESGGGIVQAGGSLRLSCAASGIIFLDYVMVWYRQAPGKERELVAAINSGGSTYYADSVKGRFTISRDNAKNTVYLQMNSLIPEDTAVYYCAADDYYKFDYWGQGTQVTLSS,low polyreactivity
